# Results from patent US20040024178A1, “Bacterial signal peptidase inhibitors and uses thereof” (priority 1999, published 2004).
# T1: S. aureus SpsB signal peptidase (Staphylococcus aureus) (UniProt P0A070)
# T1 sequence: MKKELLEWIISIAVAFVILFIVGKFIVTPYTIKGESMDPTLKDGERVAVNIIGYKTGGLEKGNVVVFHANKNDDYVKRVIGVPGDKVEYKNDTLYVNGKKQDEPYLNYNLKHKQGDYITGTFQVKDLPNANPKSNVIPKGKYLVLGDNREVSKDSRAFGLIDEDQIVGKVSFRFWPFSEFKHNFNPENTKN
# T2: Decanoyl-Leu-Thr-Pro-Lys(Bio-X)-Ala-Lys-Ala-Ala-Ser-Lys-Ile-Asp-Asp-Gly-Lys(Flu)-Asp-OH
# T2 chain: LTPKAKAASKIDDGKD
# T3: Decanoyl-Leu-Thr-Pro-Lys(Bio-X)-Ala-Lys-Ala-Ala-Ser-Lys-Lys(Flu)-Asp-Asp-OH
# T3 chain: LTPKAKAASKKDD
# T4: Decanoyl-Lys(Bio-X)-Thr-Pro-Thr-Ala-Lys-Ala-Ala-Ser-Lys-Ile-Asp-Asp-Gly-Lys(Flu)-Asp-OH
# T4 chain: KTPTAKAASKIDDGKD
# T5: Decanoyl-Lys(Flu)-Thr-Pro-Thr-Ala-Lys-Ala-Ala-Ser-Lys-Lys(Bio-X)-Asp-Asp-OH
# T5 chain: KTPTAKAASKKDD
# T6: Decanoyl-Lys(Flu)-Thr-Pro-Thr-Ala-Lys-Ala-Ala-Ser-Lys-Lys(TAMRA)-Asp-Asp-OH, prep-hplc peak 23C
# T6 chain: KTPTAKAASKKDD
# T7: Decanoyl-Lys(TAMRA)-Thr-Pro-Thr-Ala-Lys-Ala-Ala-Ser-Lys-Lys(Flu)-Asp-Asp-OH, prep-hplc peak 24C
# T7 chain: KTPTAKAASKKDD
# T8: Decanoyl-Lys(TAMRA)-Thr-Pro-Thr-Ala-Lys-Ala-Ala-Ser-Lys-Lys(Flu)-Asp-Asp-OH, prep-hplc peak 24D
# T8 chain: KTPTAKAASKKDD
# B1: S. aureus SpsB signal peptidase (protein)
# chain: T1 sequence
# Experiments:
# [1] = target: T1, S. aureus SpsB signal peptidase (Staphylococcus aureus); test: cell-based or functional assay
# [2] = target: T2, Decanoyl-Leu-Thr-Pro-Lys(Bio-X)-Ala-Lys- …
# [3] = target: T3, Decanoyl-Leu-Thr-Pro-Lys(Bio-X)-Ala-Lys- …
# [4] = target: T4, Decanoyl-Lys(Bio-X)-Thr-Pro-Thr-Ala-Lys- …
# [5] = target: T5, Decanoyl-Lys(Flu)-Thr-Pro-Thr-Ala-Lys-Al …
# [6] = target: T6, Decanoyl-Lys(Flu)-Thr-Pro-Thr-Ala-Lys-Al …
# [7] = target: T7, Decanoyl-Lys(TAMRA)-Thr-Pro-Thr-Ala-Lys- …
# [8] = target: T8, Decanoyl-Lys(TAMRA)-Thr-Pro-Thr-Ala-Lys- …
molecule,measurement,setting,value
"Decanoyl-Lys(TAMRA)-Thr-Pro-Thr-Ala-Lys-Ala-Ala-Ser-Lys-Lys(Flu)-Asp-Asp-OH, prep-hplc peak 24C (peptide)",signal change (fluorescence quench assay),[1],> 10 fold
Decanoyl-Lys(Flu)-Thr-Pro-Thr-Ala-Lys-Ala-Ala-Ser-Lys-Lys(Bio-X)-Asp-Asp-OH (peptide),"signal change (fluorescence polarisation assay, developed with avidin)",[1],> 150 mP
"Decanoyl-Lys(TAMRA)-Thr-Pro-Thr-Ala-Lys-Ala-Ala-Ser-Lys-Lys(Flu)-Asp-Asp-OH, prep-hplc peak 24D (peptide)",signal change (fluorescence quench assay),[1],> 10 fold
Decanoyl-Lys(Bio-X)-Thr-Pro-Thr-Ala-Lys-Ala-Ala-Ser-Lys-Ile-Asp-Asp-Gly-Lys(Flu)-Asp-OH (peptide),"signal change (fluorescence polarisation assay, developed with avidin)",[1],> 150 mP
Decanoyl-Leu-Thr-Pro-Lys(Bio-X)-Ala-Lys-Ala-Ala-Ser-Lys-Lys(Flu)-Asp-Asp-OH (peptide),"signal change (fluorescence polarisation assay, developed with avidin)",[1],> 150 mP
Decanoyl-Leu-Thr-Pro-Lys(Bio-X)-Ala-Lys-Ala-Ala-Ser-Lys-Ile-Asp-Asp-Gly-Lys(Flu)-Asp-OH (peptide),"signal change (fluorescence polarisation assay, developed with avidin)",[1],> 150 mP
B1,catalytic efficiency kcat/Km (fluorescence polarisation assay),[2],kcat/Km >/=8000 M^-1 sec^-1
same,catalytic efficiency kcat/Km (fluorescence polarisation assay),[3],kcat/Km >/=8000 M^-1 sec^-1
same,kcat/Km (fluorescence correlation spectroscopy assay),[3],kcat/Km=6800 M^-1s^-1
same,catalytic efficiency kcat/Km (fluorescence polarisation assay),[4],kcat/Km >/=8000 M^-1 sec^-1
same,catalytic efficiency kcat/Km (fluorescence polarisation assay),[5],kcat/Km >/=8000 M^-1 sec^-1
same,catalytic efficiency kcat/Km (fluorescence quench assay),[6],kcat/Km >/=5000 M^-1 sec^-1
same,catalytic efficiency kcat/Km (fluorescence quench assay),[7],kcat/Km >/=5000 M^-1 sec^-1
same,catalytic efficiency kcat/Km (fluorescence quench assay),[8],kcat/Km >/=5000 M^-1 sec^-1
